Assay results as given in article PMC8927968, “Lysine Methylation Modulates the Interaction of Archaeal Chromatin Protein Cren7 With DNA”.

Assays:
Cren7 K42Q K42Q = biological target: T1, Cren7 K42Q K42Q (UniProt C3NHU3); experiment: DNA-cellulose pull-down (bridging); conditions: BLI: 20 mM Tris-HCl pH 6.8, 100 mM KCl, 1 mM EDTA, 0.05% Tween-20, 30°C; pull-down: 10 mM HEPES pH 7.6, 100 mM KCl, 2.5 mM MgCl2, 0.1 mg/mL BSA, room …
T1 sequence: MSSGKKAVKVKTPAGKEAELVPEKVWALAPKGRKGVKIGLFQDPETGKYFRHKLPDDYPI

[1] = biological target: T2, Cren7WT (native, methylated) (Sulfolobus islandicus E234) (UniProt C3NHU3); experiment: DNA-cellulose pull-down (bridging); conditions: BLI: 20 mM Tris-HCl pH 6.8, 100 mM KCl, 1 mM EDTA, 0.05% Tween-20, 30°C; pull-down: 10 mM HEPES pH 7.6, 100 mM KCl, 2.5 mM MgCl2, 0.1 mg/mL BSA, room …
T2 sequence: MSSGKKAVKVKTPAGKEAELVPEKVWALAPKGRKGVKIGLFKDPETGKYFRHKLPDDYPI

Cren7 K24Q K24Q = biological target: T3, Cren7 K24Q K24Q (UniProt C3NHU3); experiment: DNA-cellulose pull-down (bridging); conditions: BLI: 20 mM Tris-HCl pH 6.8, 100 mM KCl, 1 mM EDTA, 0.05% Tween-20, 30°C; pull-down: 10 mM HEPES pH 7.6, 100 mM KCl, 2.5 mM MgCl2, 0.1 mg/mL BSA, room …
T3 sequence: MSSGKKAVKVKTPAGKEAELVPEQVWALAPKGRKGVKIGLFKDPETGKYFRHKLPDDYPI

Cren7 K48Q K48Q = biological target: T4, Cren7 K48Q K48Q (UniProt C3NHU3); experiment: DNA-cellulose pull-down (bridging); conditions: BLI: 20 mM Tris-HCl pH 6.8, 100 mM KCl, 1 mM EDTA, 0.05% Tween-20, 30°C; pull-down: 10 mM HEPES pH 7.6, 100 mM KCl, 2.5 mM MgCl2, 0.1 mg/mL BSA, room …
T4 sequence: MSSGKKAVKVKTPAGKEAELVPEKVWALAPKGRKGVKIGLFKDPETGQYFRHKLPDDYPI

rCren7 [2] = biological target: T5, rCren7 (UniProt C3NHU3 1-60); experiment: DNA-cellulose pull-down (bridging); conditions: dsDNA-cellulose, 2.5 mM MgCl2, BLI: 20 mM Tris-HCl pH 6.8, 100 mM KCl, 1 mM EDTA, 0.05% Tween-20, 30°C, pull-down: 10 mM HEPES pH 7.6, 100 mM KCl, 2.5 mM MgCl2, 0.1 mg/mL BSA, room …
T5 sequence: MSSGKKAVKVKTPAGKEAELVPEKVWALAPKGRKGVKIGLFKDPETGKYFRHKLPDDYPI

Cren7 K31Q K31Q = biological target: T6, Cren7 K31Q K31Q (UniProt C3NHU3); experiment: DNA-cellulose pull-down (bridging); conditions: BLI: 20 mM Tris-HCl pH 6.8, 100 mM KCl, 1 mM EDTA, 0.05% Tween-20, 30°C; pull-down: 10 mM HEPES pH 7.6, 100 mM KCl, 2.5 mM MgCl2, 0.1 mg/mL BSA, room …
T6 sequence: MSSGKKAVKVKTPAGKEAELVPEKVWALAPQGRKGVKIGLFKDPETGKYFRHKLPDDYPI

[3] = system: Sis7dΔaKMT (native, unmodified) (Sulfolobus islandicus ΔaKMT); experiment: BLI; conditions: BLI: 20 mM Tris-HCl pH 6.8, 100 mM KCl, 1 mM EDTA, 0.05% Tween-20, 30°C; pull-down: 10 mM HEPES pH 7.6, 100 mM KCl, 2.5 mM MgCl2, 0.1 mg/mL BSA, room …
[4] = system: Sis7dWT (native, methylated) (Sulfolobus islandicus E234); experiment: BLI; conditions: BLI: 20 mM Tris-HCl pH 6.8, 100 mM KCl, 1 mM EDTA, 0.05% Tween-20, 30°C; pull-down: 10 mM HEPES pH 7.6, 100 mM KCl, 2.5 mM MgCl2, 0.1 mg/mL BSA, room …
rSis7d = experiment: BLI; conditions: BLI: 20 mM Tris-HCl pH 6.8, 100 mM KCl, 1 mM EDTA, 0.05% Tween-20, 30°C; pull-down: 10 mM HEPES pH 7.6, 100 mM KCl, 2.5 mM MgCl2, 0.1 mg/mL BSA, room …
Cren7 K48Q = biological target: T7, Cren7 K48Q (UniProt C3NHU3 1-60, K48Q); experiment: BLI; BLI: 20 mM Tris-HCl pH 6.8, 100 mM KCl, 1 mM EDTA, 0.05% Tween-20, 30°C; pull-down: 10 mM HEPES pH 7.6, 100 mM KCl, 2.5 mM MgCl2, 0.1 mg/mL BSA, room temperature; conditions: protein: recombinant; label: 5' biotin on strand 1; blunt
T7 sequence: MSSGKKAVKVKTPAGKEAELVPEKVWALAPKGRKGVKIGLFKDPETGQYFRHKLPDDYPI

Cren7 K24Q = biological target: T8, Cren7 K24Q (UniProt C3NHU3 1-60, K24Q); experiment: as above; conditions: protein: recombinant; label: 5' biotin on strand 1; blunt
T8 sequence: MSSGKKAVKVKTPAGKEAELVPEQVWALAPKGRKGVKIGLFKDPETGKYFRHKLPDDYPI

Cren7 K31Q = biological target: T9, Cren7 K31Q (UniProt C3NHU3 1-60, K31Q); experiment: as above; conditions: protein: recombinant; label: 5' biotin on strand 1; blunt
T9 sequence: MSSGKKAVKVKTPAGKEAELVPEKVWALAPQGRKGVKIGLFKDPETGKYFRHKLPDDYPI

rCren7 [5] = biological target: T5, rCren7; experiment: as above; conditions: protein: recombinant; label: 5' biotin on strand 1; blunt
Cren7 K42Q = biological target: T10, Cren7 K42Q (UniProt C3NHU3 1-60, K42Q); experiment: as above; conditions: protein: recombinant; label: 5' biotin on strand 1; blunt
T10 sequence: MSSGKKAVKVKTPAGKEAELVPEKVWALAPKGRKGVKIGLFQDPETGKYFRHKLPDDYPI

pBR322
binding signal (Cren7 K42Q K42Q): < 10 % of rCren7 | binding signal (% (barely detected)) [1]: < 10 | binding signal (Cren7 K24Q K24Q): < 10 % of rCren7 | binding signal (Cren7 K48Q K48Q): < 10 % of rCren7 | binding signal (% input pulled down) (rCren7 [2]; 5 uM protein): 18 | binding signal (% input pulled down) (rCren7 [2]; 10 uM protein): 35 | binding signal (Cren7 K31Q K31Q): < 10 % of rCren7

TAGAGCCCTAGTCTTCCAAACTAGCTACGC (double strand) [D30]
Kd [3]: 1370 nM | Kd [4]: 1640 nM | Kd (rSis7d): 1040 nM

B1: D30 (dsDNA)
DNA 1: TAGAGCCCTAGTCTTCCAAACTAGCTACGC
DNA 2: GCGTAGCTAGTTTGGAAGACTAGGGCTCTA
Kd (Cren7 K48Q): 199 nM | Kd (Cren7 K24Q): 217 nM | Kd (Cren7 K31Q): 103 nM | Kd (rCren7 [5]): 125 nM | Kd (Cren7 K42Q): 1120 nM
